Patent publication US7288251 (ABGENIX, dated 2007)

Tests used:
RANK/Ig = experiment: ELISA, RANK/Ig coated, antibody 1 µg/ml
Procedure: (§1) We then washed the plate with PBST (PBS+0.1% Tween-20) three times and blocked the plate with PBST+0.5% BSA at 150 µl/well. We incubated the plate at room temperature for 1 hour and then washed with PBST three times. […] We incubated the plate at room temperature for 1 hour then washed with PBST three times. […] We incubated the plate at room temperature for 1 hour and then washed with PBST three times. […] We then read the plate using a SpectraMax™ plate reader.

4-1BB/Ig = biological target: T1, 4-1BB/Ig; experiment: ELISA, 4-1BB/Ig coated, antibody 1 µg/ml
T1 construct: also called CD137
Procedure: as §1

TNFR-2/Ig = biological target: T2, TNFR-2/Ig; experiment: ELISA, TNFR-2/Ig coated, antibody 1 µg/ml
T2 construct: also called Tumor Necrosis Factor Receptor-2
Procedure: as §1

TNFR-1/Ig = biological target: T3, TNFR-1/Ig; experiment: ELISA, TNFR-1/Ig coated, antibody 1 µg/ml
T3 construct: also called Tumor Necrosis Factor Receptor-1
Procedure: as §1

[1] = biological target: T4, human CD40-IgG1 Fc fusion protein (human, UniProt P25942 21-193); experiment: ELISA, CD40/Ig coated, antibody 1 µg/ml
T4 construct: extracellular domain; also called CD40-Ig fusion protein; CD40-IgG fusion protein; not shown: human IgG1 Fc

rat CD40 on blood cells = biological target: T5, rat CD40 on blood cells (rat, UniProt A6JXD6 20-289); experiment: FACS, whole blood
T5 construct: also called rat blood
T5 sequence: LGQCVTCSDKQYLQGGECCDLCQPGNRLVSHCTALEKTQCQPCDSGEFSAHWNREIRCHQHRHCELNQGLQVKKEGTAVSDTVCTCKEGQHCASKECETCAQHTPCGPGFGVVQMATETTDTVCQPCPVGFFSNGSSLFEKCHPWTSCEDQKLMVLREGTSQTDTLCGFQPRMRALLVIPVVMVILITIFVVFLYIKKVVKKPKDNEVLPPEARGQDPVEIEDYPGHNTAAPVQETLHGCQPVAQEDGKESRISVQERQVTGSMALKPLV

[2] = biological target: T6, mouse CD40 on blood cells (mouse, UniProt P27512 20-289); experiment: FACS, whole blood
T6 construct: whole, on cells; also called mouse blood

dog CD40 on blood cells = biological target: T7, dog CD40 on blood cells (dog, UniProt Q7YRL5 21-274); experiment: FACS, whole blood
T7 construct: whole, on cells; also called dog blood
T7 sequence (looked up): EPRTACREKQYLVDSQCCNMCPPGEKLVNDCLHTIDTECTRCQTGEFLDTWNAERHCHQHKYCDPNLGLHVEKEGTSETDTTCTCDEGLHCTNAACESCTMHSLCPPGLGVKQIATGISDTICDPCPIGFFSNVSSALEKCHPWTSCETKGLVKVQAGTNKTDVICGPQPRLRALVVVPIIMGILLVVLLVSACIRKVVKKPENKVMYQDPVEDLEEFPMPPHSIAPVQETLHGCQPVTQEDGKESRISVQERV

human CD40 on cells [3] = biological target: T8, human CD40 on cells (human, UniProt P25942 21-277); experiment: FACS on CD19/CD20+ B cells in whole blood
T8 construct: whole, on cells; also called human B cells; monocyte derived dendritic cells
Procedure: We incubated aliquots of human and monkey whole blood for 1 hour on ice with increasing concentrations of anti-CD40 antibodies of the invention exemplified herein or with an anti-keyhole limpet hemocyanin (KLH) antibody as a negative control. We then incubated the samples for 30 minutes on ice with anti-human IgG2-conjugated RPE (phycoerythrin). We measured binding by flow cytometry of CD19/CD20 positive B cells and analyzed the histograms of fluorescence intensity (F12-H) versus cell number (Counts) using CellQuest software. We estimated binding (K_D) for each antibody from graphs of mean fluorescence intensity versus antibody concentration. We controlled for depletion of the antibody by measuring binding over a range of cell concentrations.

human CD40 on cells [4] = biological target: T8, human CD40 on cells; experiment: cell-based or functional assay
[5] = biological target: T4, human CD40-IgG1 Fc fusion protein; experiment: SPR BIAcore 3000, CD40-Ig immobilised, antibody injected
Procedure: The carboxymethylated dextran surface of a flow cell on a sensor chip was activated by derivatization with 0.05 M N-hydroxysuccinimide mediated by 0.2 M N-ethyl-N'-(dimethylaminopropyl) carbodiimide for 7 min. […] Deactivation of unreacted N-hydroxysuccinimide esters was performed using 1 M ethanolamine hydrochloride, pH 8.5. Following immobilization, the flow cells are cleaned of any unreacted or poorly bound material with 5 regeneration injections of 5 µl of 50 mM NaOH until a stable baseline is achieved. Flow cell 2, a high density surface, measured approximately 300 RU's following surface preparation and flow cell 3, a low density surface, measured approximately 150 RU's. For flow cell 1, the activated blank surface, 35 µl of 10 mM Na acetate buffer was injected during immobilization in place of antigen. Flow cell 4 contained approximately 450 RU's of immobilized CTLA4-Ig, an irrelevant antigen control.
A dilution series of each antibody was prepared in the concentration range of 100 µg/ml to 0.1 µg/ml by half logs. The flow rate was set at 5 µl/min and 25 µl of each concentration point sample was injected over the sensor chip with a regeneration injection of 5 µl of 50 mM NaOH between each concentration of antibody injected. The data was analyzed using BIAevaluation 3.0 software.

human CD40 on cells [6] = biological target: T8, human CD40 on cells; experiment: cell-based or functional assay; remark: listed apart in the source
human CD40 on cells [7] = biological target: T8, human CD40 on cells; experiment: cell-based or functional assay; remark: listed apart in the source
human CD40 on cells [8] = biological target: T8, human CD40 on cells; experiment: cell-based or functional assay; remark: listed apart in the source
[9] = biological target: T9, human/mouse chimeric CD40 HuD3 (mouse; human, UniProt P27512 20-94; P25942 95-147, limits assumed); experiment: ELISA on chimeric CD40
T9 construct: domain: D1-D2;domain: D3

[10] = biological target: T10, human/mouse chimeric CD40 HuD1, D3 (human; mouse, UniProt P25942 21-64; P27512 65-94; P25942 95-147, limits assumed); experiment: ELISA on chimeric CD40
T10 construct: domain: D1;domain: D2;domain: D3

[11] = biological target: T11, human/mouse chimeric CD40 HuD1 (human; mouse, UniProt P25942 21-64; P27512 65-147, limits assumed); experiment: ELISA on chimeric CD40
T11 construct: domain: D1;domain: D2-D3

Mouse CD40(D1-D3)-6Xhis = biological target: T12, Mouse CD40(D1-D3)-6Xhis (mouse, UniProt P27512 20-147, limits assumed); experiment: ELISA, 293F supernatant
T12 construct: domain: D1-D3; also called Mouse CD40(D1-D3)-6xHis fusion protein
Source text: Binding of anti-CD40 human antibodies were detected with HRP conjugated goat anti-human IgG (FC specific Caltag H10507), diluted 1:2,000.

human CD40 on cells [12] = biological target: T8, human CD40 on cells; experiment: cell-based or functional assay; remark: listed apart in the source
human CD40 on cells [13] = biological target: T8, human CD40 on cells; experiment: cell-based or functional assay; remark: listed apart in the source
[14] = biological target: T13, human/mouse chimeric CD40 HuD2, D3 (mouse; human, UniProt P27512 20-64; P25942 65-147, limits assumed); experiment: ELISA on chimeric CD40
T13 construct: domain: D1;domain: D2-D3

[15] = biological target: T14, human/mouse chimeric CD40 HuD2 (mouse; human, UniProt P27512 20-64; P25942 65-94; P27512 95-147, limits assumed); experiment: ELISA on chimeric CD40
T14 construct: domain: D1;domain: D2;domain: D3
T14 sequence (P27512 other isoform, or with tags, fused parts or gaps mutant limits assumed): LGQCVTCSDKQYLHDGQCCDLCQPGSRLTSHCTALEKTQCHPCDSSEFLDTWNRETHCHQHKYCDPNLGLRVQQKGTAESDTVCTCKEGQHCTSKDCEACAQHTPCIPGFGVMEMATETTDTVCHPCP

T2 sequence (P20333 23-257): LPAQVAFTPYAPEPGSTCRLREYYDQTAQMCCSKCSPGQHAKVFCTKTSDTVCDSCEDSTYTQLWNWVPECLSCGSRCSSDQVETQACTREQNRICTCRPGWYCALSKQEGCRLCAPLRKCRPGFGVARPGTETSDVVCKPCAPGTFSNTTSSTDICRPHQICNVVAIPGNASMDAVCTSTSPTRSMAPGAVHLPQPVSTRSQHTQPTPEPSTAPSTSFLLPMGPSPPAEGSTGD
Sequence of RANK/Ig (Q9Y6Q6 whole entry): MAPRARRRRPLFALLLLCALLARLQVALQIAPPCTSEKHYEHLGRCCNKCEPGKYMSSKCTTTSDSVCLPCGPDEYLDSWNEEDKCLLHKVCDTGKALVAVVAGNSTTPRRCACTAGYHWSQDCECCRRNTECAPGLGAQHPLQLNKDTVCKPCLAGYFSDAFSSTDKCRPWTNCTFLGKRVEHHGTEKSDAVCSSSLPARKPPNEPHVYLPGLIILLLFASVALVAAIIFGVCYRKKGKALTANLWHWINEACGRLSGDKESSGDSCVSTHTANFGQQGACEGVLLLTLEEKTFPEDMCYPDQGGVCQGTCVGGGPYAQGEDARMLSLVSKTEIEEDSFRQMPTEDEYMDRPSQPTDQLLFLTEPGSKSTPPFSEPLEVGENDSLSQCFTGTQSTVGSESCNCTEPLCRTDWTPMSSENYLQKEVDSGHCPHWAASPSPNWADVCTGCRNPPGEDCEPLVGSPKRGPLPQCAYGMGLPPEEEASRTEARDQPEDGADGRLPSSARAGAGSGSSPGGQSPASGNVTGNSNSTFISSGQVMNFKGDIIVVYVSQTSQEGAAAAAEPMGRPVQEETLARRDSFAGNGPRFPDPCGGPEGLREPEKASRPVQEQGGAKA
T3 sequence (P19438 whole entry): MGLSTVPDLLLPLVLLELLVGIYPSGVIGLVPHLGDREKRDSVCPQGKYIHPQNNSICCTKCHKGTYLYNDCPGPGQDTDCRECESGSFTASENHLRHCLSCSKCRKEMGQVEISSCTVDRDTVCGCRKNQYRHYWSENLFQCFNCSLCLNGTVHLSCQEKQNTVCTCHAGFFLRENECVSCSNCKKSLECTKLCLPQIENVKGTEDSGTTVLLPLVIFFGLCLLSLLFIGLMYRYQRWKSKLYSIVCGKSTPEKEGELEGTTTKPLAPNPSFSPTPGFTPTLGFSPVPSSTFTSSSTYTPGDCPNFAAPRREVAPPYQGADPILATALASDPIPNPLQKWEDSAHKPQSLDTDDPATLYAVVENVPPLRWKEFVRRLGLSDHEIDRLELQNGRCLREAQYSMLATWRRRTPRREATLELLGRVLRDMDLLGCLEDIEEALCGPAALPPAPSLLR
T6 sequence (P27512 20-289): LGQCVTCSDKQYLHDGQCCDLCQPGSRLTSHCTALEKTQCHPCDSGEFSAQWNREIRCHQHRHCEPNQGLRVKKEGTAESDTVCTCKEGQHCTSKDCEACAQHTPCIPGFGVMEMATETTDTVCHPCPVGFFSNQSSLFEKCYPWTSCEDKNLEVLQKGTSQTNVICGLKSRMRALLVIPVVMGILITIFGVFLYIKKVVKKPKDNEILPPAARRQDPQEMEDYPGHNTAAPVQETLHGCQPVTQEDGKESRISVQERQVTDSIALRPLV
T4 sequence (P25942 21-193): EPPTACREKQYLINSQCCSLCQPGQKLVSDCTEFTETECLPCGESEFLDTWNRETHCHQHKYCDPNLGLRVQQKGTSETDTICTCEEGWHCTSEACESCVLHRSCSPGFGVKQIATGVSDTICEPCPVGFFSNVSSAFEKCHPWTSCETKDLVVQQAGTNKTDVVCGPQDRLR
T8 sequence (P25942 21-277): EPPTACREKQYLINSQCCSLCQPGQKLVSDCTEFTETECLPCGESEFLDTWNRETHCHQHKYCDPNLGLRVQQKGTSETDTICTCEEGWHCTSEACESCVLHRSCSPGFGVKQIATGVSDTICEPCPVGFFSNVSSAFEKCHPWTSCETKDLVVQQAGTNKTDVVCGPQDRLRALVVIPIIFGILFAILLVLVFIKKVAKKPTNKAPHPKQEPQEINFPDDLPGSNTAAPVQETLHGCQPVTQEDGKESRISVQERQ
T11 sequence (P25942 other isoform, or with tags, fused parts or gaps mutant limits assumed): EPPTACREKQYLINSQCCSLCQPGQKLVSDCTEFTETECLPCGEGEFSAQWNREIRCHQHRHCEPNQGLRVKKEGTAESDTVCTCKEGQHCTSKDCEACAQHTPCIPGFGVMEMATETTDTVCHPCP
T10 sequence (P25942 other isoform, or with tags, fused parts or gaps mutant limits assumed): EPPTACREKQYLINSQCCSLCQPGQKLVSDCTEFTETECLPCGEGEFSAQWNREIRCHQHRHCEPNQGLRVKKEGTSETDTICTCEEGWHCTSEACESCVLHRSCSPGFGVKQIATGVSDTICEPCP
T12 sequence (P27512 other isoform, or with tags, fused parts or gaps limits assumed): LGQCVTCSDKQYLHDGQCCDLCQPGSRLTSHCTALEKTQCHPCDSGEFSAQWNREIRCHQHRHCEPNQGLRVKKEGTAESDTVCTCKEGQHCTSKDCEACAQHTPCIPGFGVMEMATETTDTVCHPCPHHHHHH
T9 sequence (P27512 other isoform, or with tags, fused parts or gaps mutant limits assumed): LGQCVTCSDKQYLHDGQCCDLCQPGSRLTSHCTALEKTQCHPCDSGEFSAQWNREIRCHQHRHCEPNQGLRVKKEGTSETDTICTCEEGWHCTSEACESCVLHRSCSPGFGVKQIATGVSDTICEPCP
T13 sequence (P27512 other isoform, or with tags, fused parts or gaps mutant limits assumed): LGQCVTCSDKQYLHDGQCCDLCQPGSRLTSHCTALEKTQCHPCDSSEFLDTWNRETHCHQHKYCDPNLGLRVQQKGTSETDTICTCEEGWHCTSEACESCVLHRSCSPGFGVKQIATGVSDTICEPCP

B1: monoclonal antibody 7.1.2 (antibody, human IgG2, kappa, V domains shown)
VH: QVQLVESGGGVVQPGRSLRLSCAASGFTFSSYGMHWVRQAPGKGLEWVAVISNDGDNKYHADSVWGRFTISRDNSRSTLYLQMNSLRAEDTAVYYCARRGMGSSGSRGDYYYYYGLDVWGQGTTVTVSS
VL: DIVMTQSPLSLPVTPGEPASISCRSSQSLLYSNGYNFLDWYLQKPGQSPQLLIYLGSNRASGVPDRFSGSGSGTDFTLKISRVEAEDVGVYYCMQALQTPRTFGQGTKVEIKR
notes: Human IgG2 kappa from hybridoma; also called hybridoma 7.1.2 (LN 15849), ATCC PTA-3601
- CD40 specific signal over the signal for this molecule (RANK/Ig): ≥ 100 fold
- CD40 specific signal over the signal for this molecule (4-1BB/Ig): ≥ 100 fold
- CD40 specific signal over the signal for this molecule (TNFR-2/Ig): ≥ 100 fold
- CD40 specific signal over the signal for this molecule (TNFR-1/Ig): ≥ 100 fold
- binding result [1]: binds
- binding result (rat CD40 on blood cells): no binding
- binding result [2]: no binding
- binding result (dog CD40 on blood cells): no binding
- binding result (human CD40 on cells [3]): binds

B2: monoclonal antibody 23.29.1 (antibody, human IgG2, kappa, V domains shown)
VH: QVQLVESGGGVVQPGRSLRLSCAASGFTFSSYAMHWVRQAPGKGLEWVAVISYDGSNKYYADSVKGRFTIYRDNSKNTLYLQMNSLRAEDTAVYYCARRGHYGNNYYSYYGLDVWGQGTTVTVSS
VL: DIVMTQSPLSLPVTPGEPASISCRSSQSLLPGNGYNYLDWYLQKPGQSPQLLIYLGSNRASGVPDRFSGSGSGTDFTLKISRVEAEDVGIYYCMQALQTPRTFGQGTKVEIKR
notes: Human IgG2 kappa from hybridoma; also called mAb 23.29.1; hybridoma 23.29.1 (LN 15878), ATCC PTA-4553
- CD40 specific signal over the signal for this molecule (RANK/Ig): ≥ 100 fold
- CD40 specific signal over the signal for this molecule (4-1BB/Ig): ≥ 100 fold
- CD40 specific signal over the signal for this molecule (TNFR-2/Ig): ≥ 100 fold
- DC B7-1 (CD80), fold increase in median intensity at 1 µg/ml, 72 h (human CD40 on cells [4]): 0.9 fold
- DC B7-2 (CD86), fold increase in median intensity at 1 µg/ml, 72 h (human CD40 on cells [4]): 8.4 fold
- DC CD83, fold increase in median intensity at 1 µg/ml, 72 h (human CD40 on cells [4]): 10.6 fold
- DC ICAM (CD54), fold increase in median intensity at 1 µg/ml, 72 h (human CD40 on cells [4]): 1.2 fold
- DC MHC Class II, fold increase in median intensity at 1 µg/ml, 72 h (human CD40 on cells [4]): 2 fold
- Kd [5]: 0.0704 nM
- koff [5]: 3.9e-05 s⁻¹
- kon [5]: 354000 M⁻¹ s⁻¹
- Allo DC/T IFNγ secretion, EC50 (human CD40 on cells [6]): 0.3 µg/mL
- CD40 specific signal over the signal for this molecule (TNFR-1/Ig): ≥ 100 fold
- B cell B7-1 (CD80), fold increase in median intensity at 1 µg/ml (human CD40 on cells [7]): 1.3 fold
- B cell B7-2 (CD86), fold increase in median intensity at 1 µg/ml (human CD40 on cells [7]): 0.9 fold
- B cell CD23, fold increase in median intensity at 1 µg/ml (human CD40 on cells [7]): 1.1 fold
- B cell ICAM (CD54), fold increase in median intensity at 1 µg/ml (human CD40 on cells [7]): 1 fold
- B cell MHC Class II, fold increase in median intensity at 1 µg/ml (human CD40 on cells [7]): 1.2 fold
- DC IL-12p70 secretion with LPS, EC50 (human CD40 on cells [8]): 0.1 µg/mL
- binding result [9]: no binding
- binding result [10]: no binding
- binding result [11]: no binding
- binding result (Mouse CD40(D1-D3)-6Xhis): no binding
- binding result (rat CD40 on blood cells): no binding
- binding result [2]: no binding
- binding result (dog CD40 on blood cells): no binding

B3: monoclonal antibody 21.4.1 (antibody, human IgG2, kappa, V domains shown)
VH: not shown
VL: DIQMTQSPSSVSASVGDRVTITCRASQGIYSWLAWYQQKPGKAPNLLIYTASTLQSGVPSRFSGSGSGTDFTLTISSLQPEDFATYYCQQANIFPLTFGGGTKVEIKR
notes: Human IgG2 kappa from hybridoma; also called mAb 21.4.1; hybridoma 21.4.1 (LN 15853), ATCC PTA-3605
- CD40 specific signal over the signal for this molecule (RANK/Ig): ≥ 100 fold
- CD40 specific signal over the signal for this molecule (4-1BB/Ig): ≥ 100 fold
- Dendritic cell B7-2 upregulation, EC50 (human CD40 on cells [12]): 0.0714 µg/mL
- Dendritic cell CD83 upregulation, EC50 (human CD40 on cells [12]): 0.233 µg/mL
- Dendritic cell ICAM upregulation, EC50 (human CD40 on cells [12]): 0.241 µg/mL
- Dendritic cell MHC II upregulation, EC50 (human CD40 on cells [12]): 0.252 µg/mL
- CD40 specific signal over the signal for this molecule (TNFR-2/Ig): ≥ 100 fold
- Kd [5]: 0.348 nM
- Allo DC/T IFNγ secretion, EC50 (human CD40 on cells [6]): 0.3 µg/mL
- CD40 specific signal over the signal for this molecule (TNFR-1/Ig): ≥ 100 fold
- B cell B7-2 upregulation, EC50 (human CD40 on cells [13]): 0.016 µg/mL
- B cell CD23 upregulation, EC50 (human CD40 on cells [13]): 0.019 µg/mL
- B cell CD71 upregulation, EC50 (human CD40 on cells [13]): 0.00073 µg/mL
- B cell ICAM upregulation, EC50 (human CD40 on cells [13]): 0.0153 µg/mL
- B cell MHC II upregulation, EC50 (human CD40 on cells [13]): 0.00385 µg/mL
- DC IL-12p70 secretion with LPS, EC50 (human CD40 on cells [8]): 0.3 µg/mL
- binding result [14]: no binding
- binding result [15]: no binding
- binding result [9]: no binding
- binding result [10]: no binding
- binding result [11]: no binding
- binding result (Mouse CD40(D1-D3)-6Xhis): no binding
- binding result (rat CD40 on blood cells): no binding
- binding result [2]: no binding
- binding result (dog CD40 on blood cells): no binding
